Tests used:
[1] = molecular target: T1, Subtilisin-treated microtubules (lacking the C-terminal tails of α- and β-tubulin) (bovine, UniProt Q6B856 1-445, Purified bovine brain tubulin is an isotype mixture; the representative isotypes alpha-1B and beta-2B are assumed, as the paper states none. Cleavage limits are not given; the conventional major sub); test: co-sedimentation; 2 μM kinesin, 0–4 μM paclitaxel-stabilised microtubules, no added nucleotide, high ionic strength (88 mM; ATPase buffer with 75 mM KCl), 298 K, 100,000 × g 30 min; supernatant and pellet by SDS-PAGE; apparent constants, fit to Equation 3; conditions: both partners purified
[2] = molecular target: T1, Subtilisin-treated microtubules …; test: co-sedimentation; 2 μM kinesin, 0–4 μM paclitaxel-stabilised microtubules, no added nucleotide, low ionic strength (21 mM; ATPase buffer with 7.5 mM KCl), 298 K, 100,000 × g 30 min; supernatant and pellet by SDS-PAGE; apparent constants, fit to Equation 3; conditions: both partners purified

T1 sequence (chain, as listed by the source, chain 1 of 2): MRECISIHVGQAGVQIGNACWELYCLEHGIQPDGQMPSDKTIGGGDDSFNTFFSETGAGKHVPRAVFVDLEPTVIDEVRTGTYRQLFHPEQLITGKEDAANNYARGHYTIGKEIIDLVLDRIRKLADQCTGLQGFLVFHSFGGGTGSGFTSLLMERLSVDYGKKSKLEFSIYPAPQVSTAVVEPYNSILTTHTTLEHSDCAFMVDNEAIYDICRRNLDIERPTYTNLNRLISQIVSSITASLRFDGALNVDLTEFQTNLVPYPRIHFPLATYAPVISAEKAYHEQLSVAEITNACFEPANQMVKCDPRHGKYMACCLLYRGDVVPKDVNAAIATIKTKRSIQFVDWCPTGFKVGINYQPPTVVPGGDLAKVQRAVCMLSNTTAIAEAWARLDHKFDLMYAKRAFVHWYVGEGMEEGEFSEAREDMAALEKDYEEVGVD
T1 sequence (Q6B856 1-433, chain 2 of 2): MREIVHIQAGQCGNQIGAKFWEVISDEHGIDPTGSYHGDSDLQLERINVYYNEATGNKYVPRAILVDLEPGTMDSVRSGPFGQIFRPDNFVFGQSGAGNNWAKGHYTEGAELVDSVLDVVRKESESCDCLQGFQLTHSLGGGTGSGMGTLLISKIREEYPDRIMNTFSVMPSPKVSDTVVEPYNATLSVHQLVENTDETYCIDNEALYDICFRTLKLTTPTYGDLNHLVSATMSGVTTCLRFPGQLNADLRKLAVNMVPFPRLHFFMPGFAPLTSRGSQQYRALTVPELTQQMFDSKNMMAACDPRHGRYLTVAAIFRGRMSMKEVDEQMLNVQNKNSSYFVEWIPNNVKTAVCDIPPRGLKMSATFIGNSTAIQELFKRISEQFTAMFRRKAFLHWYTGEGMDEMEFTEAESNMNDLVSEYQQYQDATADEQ

B1: Cin8-trx (Cin8 motor domain, residues 70–535, fused to N-terminal thioredoxin (TrxA), His6, TEV cleavage and Arg9 tags) (domain or fragment, S. cerevisiae, UniProt P27895 70-535, looked up)
chain: ISINTTGDTGITAQMNAKRYTVDKVFGPGASQDLIFDEVAGPLFQDFIKGYNCTVLVYGMTSTGKTYTMTGDEKLYNGELSDAAGIIPRVLLKLFDTLELQQNDYVVKCSFIELYNEELKDLLDSNSNGSSNTGFDGQFMKKLRIFDSSTANNTTSNSASSSRSNSRNSSPRSLNDLTPKAALLRKRLRTKSLPNTIKQQYQQQQAVNSRNNSSSNSGSTTNNASSNTNTNNGQRSSMAPNDQTNGIYIQNLQEFHITNAMEGLNLLQKGLKHRQVASTKMNDFSSRSHTIFTITLYKKHQDELFRISKMNLVDLAGSENINRSGALNQRAKEAGSINQSLLTLGRVINALVDKSGHIPFRESKLTRLLQDSLGGNTKTALIATISPAKVTSEETCSTLEYASKAKNIKNKPQLGSFIMKDILVKNITMELAKIKSDLLSTKSKEGIYMSQDHYKNLNSDLESYKN
notes: Kinesin-5 Cin8, S. cerevisiae, motor domain, residues 70–535; Expected mass 67.3 kDa; source: E. coli B834(DE3) with pRILP, purified (SP-Sepharose, nickel-nitrilotriacetic acid, Sephadex G-25); not shown: thioredoxin (TrxA), N-terminal, kept; His6, N-terminal, kept; TEV cleavage tag, N-terminal, kept; Arg9, N-terminal, kept
- stoichiometry N [1]: 2.2 ± 0.2
- stoichiometry N [2]: 5.4 ± 0.4
